Our source for the rate of substrate hydrolysis, fluorescence assay (pmol substrate min^-1), stimulation of the rate of substrate hydrolysis by rEP with pVIc peptide and activation of rEP, rate of hydrolysis of (Leu-Arg-Gly-Gly-NH)2-rhodamine values is patent US5543264.

For assay [1], the target named is (Leu-Arg-Gly-Gly-NH)2-rhodamine.
Assay [2] concerns the target purified recombinant Ad2 proteinase (rEP) (human adenovirus type 2).
The target is the same in assay [3]. The source holds these as a separate data set.

The molecule “purified recombinant Ad2 proteinase (rEP) (enzyme)” displayed a rate of substrate hydrolysis, fluorescence assay (pmol substrate min^-1) in assay [1] of 25.6.
polyglutamic acid: the stimulation of the rate of substrate hydrolysis by rEP with pVIc peptide in assay [2] turned out to be 8.9 fold.
Same read-out and setting: for polylysine the value was less than 1 fold; for polyaspartic acid, 5 fold.

B1: Ad2 pVI-c peptide cofactor (11-amino acid carboxy terminus of pVI) (peptide)
peptide: GVQSLKRRRCF
B1: the activation of rEP, rate of hydrolysis of (Leu-Arg-Gly-Gly-NH)2-rhodamine in assay [3] was found to be 2.76 pmol/min.
